Experimental data as given in paper PMC12436637.

Molecular target: low-density lipoprotein receptor LRP1 on human iPSC-derived cortical excitatory neurons (human (endogenous in iPSC-derived neurons)) (UniProt Q07954)
UniProt Q07954, sequence (Q07954 20-4544): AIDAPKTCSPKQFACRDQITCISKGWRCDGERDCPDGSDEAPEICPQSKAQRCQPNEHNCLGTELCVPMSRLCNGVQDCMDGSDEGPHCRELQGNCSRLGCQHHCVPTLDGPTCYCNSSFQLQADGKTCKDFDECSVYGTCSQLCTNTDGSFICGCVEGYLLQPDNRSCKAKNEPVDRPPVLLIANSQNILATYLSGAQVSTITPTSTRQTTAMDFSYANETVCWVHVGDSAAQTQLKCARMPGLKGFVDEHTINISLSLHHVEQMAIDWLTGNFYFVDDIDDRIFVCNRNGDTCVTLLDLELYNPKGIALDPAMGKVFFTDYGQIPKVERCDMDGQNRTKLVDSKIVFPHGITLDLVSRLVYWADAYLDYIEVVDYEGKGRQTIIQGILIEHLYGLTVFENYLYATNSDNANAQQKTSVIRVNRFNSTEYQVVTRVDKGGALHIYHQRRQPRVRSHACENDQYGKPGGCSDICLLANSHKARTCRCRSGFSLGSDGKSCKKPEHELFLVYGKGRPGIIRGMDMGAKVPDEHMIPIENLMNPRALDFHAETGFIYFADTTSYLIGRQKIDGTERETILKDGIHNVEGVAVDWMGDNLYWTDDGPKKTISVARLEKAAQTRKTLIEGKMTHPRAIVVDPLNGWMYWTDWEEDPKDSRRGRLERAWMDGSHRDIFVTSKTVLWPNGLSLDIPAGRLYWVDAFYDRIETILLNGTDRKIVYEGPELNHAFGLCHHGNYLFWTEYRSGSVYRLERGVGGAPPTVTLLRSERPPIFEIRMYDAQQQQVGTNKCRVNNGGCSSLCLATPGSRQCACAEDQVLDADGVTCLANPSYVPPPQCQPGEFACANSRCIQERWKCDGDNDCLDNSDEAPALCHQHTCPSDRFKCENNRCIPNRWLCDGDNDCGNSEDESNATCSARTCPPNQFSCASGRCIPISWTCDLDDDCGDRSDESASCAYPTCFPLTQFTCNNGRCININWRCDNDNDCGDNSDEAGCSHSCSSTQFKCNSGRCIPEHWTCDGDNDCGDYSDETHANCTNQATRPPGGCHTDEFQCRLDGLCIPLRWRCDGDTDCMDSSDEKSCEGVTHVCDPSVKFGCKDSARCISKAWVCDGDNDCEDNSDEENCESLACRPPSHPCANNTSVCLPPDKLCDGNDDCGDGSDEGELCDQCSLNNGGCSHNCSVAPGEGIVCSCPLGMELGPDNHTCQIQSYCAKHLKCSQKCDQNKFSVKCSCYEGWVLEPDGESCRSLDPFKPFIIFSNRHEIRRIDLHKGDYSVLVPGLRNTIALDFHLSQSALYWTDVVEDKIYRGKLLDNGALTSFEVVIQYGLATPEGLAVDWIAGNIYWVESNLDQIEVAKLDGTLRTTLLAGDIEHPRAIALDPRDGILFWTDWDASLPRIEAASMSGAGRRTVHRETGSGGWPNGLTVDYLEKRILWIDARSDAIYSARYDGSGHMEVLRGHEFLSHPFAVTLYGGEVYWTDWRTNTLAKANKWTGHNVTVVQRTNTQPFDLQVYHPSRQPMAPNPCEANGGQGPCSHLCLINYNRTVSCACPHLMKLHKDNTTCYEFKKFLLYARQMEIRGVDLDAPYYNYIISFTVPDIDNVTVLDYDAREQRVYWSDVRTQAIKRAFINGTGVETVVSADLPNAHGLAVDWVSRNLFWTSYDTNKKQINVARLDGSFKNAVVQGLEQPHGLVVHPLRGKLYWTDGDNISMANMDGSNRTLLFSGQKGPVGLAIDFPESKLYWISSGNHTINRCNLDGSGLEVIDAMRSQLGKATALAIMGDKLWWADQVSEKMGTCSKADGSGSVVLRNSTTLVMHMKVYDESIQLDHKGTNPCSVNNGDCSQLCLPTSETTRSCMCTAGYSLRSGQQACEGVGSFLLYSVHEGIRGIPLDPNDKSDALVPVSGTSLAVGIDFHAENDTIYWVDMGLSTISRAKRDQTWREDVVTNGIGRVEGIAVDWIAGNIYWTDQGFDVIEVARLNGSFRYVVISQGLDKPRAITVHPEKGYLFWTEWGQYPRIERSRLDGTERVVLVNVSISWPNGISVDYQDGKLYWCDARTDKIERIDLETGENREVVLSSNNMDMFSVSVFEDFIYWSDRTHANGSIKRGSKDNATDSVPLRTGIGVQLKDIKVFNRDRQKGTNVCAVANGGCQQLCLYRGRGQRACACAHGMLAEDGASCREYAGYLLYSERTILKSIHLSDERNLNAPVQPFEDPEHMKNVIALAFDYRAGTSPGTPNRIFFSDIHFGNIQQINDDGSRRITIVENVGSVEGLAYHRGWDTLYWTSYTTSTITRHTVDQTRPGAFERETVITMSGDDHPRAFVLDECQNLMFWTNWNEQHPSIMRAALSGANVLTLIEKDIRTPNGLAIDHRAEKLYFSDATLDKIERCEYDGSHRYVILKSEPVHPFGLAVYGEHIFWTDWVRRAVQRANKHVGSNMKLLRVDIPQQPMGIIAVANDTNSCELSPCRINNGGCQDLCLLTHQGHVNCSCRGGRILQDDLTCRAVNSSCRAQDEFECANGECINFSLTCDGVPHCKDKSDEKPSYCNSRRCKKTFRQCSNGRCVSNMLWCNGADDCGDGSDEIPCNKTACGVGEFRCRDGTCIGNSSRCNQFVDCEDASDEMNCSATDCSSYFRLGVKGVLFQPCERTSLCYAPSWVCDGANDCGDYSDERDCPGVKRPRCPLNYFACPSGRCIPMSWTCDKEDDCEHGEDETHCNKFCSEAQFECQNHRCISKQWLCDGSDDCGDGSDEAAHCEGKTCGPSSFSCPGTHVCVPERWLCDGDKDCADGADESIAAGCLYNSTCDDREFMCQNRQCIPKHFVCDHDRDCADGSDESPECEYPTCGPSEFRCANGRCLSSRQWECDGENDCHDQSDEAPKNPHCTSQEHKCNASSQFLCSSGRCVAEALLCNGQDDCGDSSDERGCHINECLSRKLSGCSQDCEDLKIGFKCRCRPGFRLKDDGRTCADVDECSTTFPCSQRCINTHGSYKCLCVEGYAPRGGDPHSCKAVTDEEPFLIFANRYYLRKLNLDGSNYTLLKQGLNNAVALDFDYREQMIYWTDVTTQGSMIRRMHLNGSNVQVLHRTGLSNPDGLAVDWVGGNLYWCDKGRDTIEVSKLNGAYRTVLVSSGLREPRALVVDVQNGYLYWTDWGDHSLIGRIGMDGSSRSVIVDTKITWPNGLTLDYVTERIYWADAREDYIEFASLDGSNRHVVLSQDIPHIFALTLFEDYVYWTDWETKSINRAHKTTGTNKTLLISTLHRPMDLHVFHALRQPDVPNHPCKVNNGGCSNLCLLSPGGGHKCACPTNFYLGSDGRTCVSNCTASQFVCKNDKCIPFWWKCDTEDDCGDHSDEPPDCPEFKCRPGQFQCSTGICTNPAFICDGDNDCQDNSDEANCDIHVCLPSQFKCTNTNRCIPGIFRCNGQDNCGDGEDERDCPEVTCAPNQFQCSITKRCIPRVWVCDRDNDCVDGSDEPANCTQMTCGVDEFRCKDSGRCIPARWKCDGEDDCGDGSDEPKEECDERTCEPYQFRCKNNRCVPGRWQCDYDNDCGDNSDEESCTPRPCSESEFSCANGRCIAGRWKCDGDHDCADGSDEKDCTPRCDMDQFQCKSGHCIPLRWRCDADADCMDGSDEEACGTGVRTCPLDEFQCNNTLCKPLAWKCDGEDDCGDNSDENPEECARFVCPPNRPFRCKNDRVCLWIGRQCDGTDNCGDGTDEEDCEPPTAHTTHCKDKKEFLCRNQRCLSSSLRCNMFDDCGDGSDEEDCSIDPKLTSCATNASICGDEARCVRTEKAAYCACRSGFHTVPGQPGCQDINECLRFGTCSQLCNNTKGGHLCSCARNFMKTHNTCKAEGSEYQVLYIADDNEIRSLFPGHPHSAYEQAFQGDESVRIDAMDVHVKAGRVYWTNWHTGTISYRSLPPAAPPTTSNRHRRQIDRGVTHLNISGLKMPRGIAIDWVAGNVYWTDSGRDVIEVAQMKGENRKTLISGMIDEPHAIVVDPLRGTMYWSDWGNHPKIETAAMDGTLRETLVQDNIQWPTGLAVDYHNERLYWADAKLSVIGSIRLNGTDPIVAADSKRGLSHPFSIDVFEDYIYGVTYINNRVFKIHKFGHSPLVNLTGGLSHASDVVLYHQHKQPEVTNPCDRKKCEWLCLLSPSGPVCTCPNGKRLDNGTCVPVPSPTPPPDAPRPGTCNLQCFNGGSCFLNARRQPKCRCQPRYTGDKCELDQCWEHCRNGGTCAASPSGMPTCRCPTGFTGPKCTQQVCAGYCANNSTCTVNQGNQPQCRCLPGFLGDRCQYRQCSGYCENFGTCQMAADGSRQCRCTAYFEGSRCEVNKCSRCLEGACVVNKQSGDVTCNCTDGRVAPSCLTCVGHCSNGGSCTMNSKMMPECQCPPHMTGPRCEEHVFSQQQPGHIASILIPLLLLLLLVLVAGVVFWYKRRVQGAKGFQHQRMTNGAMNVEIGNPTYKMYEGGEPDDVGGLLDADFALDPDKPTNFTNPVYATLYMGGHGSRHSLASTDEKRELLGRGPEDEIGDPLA

## monomeric tau P301S (tau P301S_FLAG×3_10×his-tag), pHrodo-labelled (natural protein)
  decrease in neuronal uptake of monomeric tau-pHrodo (tau-positive objects, live imaging over 4 h) with 100 nM soluble recombinant LRP1 domain IV (Human LRP1 Cluster IV Fc Chimera, R&D Systems) added: 68%
  neuronal uptake of monomeric tau-pHrodo (tau-positive objects, live imaging over 4 h) with 10 nM RAP chaperone (Human LRPAP Protein, R&D Systems) added to block LDL receptors: 63%
